# T1: RHPN1, Q8TCX5
# T1 sequence (Q8TCX5 508-602, limits assumed, looked up): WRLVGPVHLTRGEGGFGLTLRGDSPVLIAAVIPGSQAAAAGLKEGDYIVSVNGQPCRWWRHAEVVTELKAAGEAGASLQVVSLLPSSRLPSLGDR
# T2: MPDZ_5, O75970
# T2 sequence (O75970 695-796, limits assumed, looked up): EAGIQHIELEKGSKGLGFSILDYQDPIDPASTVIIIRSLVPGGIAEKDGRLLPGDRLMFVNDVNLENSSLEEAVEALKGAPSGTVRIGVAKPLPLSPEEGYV
# T3: LRRC7, Q96NW7
# T3 sequence (Q96NW7 1440-1537, limits assumed, looked up): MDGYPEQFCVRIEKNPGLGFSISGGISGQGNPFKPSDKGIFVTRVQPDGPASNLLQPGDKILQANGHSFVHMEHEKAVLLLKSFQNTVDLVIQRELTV
# T4: ARHGAP21, Q5T5U3
# T4 sequence (Q5T5U3 45-169, limits assumed, looked up): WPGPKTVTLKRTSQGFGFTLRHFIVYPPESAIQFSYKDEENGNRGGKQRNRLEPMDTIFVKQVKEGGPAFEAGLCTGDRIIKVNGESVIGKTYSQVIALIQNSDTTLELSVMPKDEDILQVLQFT
# T5: MPDZ_10, O75970
# T5 sequence (O75970 1624-1722, limits assumed, looked up): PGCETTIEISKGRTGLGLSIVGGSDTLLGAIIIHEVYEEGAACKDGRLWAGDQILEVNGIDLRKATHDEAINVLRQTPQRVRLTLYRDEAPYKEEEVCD
# T6: HTRA3, P83110
# T6 sequence (P83110 354-453, limits assumed, looked up): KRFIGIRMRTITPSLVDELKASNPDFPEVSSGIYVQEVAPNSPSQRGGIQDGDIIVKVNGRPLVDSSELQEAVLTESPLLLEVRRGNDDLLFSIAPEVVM
# T7: DFNB31_2, Q9P202
# T7 sequence (Q9P202 274-371, limits assumed, looked up): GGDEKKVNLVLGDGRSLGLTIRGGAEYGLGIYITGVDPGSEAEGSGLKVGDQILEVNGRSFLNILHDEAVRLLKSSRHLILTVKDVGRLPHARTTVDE
# T8: PDZRN3_1, Q9UPQ7
# T8 sequence (Q9UPQ7 244-349, limits assumed, looked up): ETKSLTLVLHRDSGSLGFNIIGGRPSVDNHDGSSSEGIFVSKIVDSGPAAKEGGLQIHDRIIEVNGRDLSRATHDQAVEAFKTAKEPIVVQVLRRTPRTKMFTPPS
# T9: FRMPD1, Q5SYB0
# T9 sequence (Q5SYB0 52-145, limits assumed, looked up): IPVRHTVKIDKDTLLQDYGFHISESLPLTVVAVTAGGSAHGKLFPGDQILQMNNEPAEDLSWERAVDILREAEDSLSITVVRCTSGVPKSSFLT
# T10: MPP7, Q5T2T1
# T10 sequence (Q5T2T1 134-230, limits assumed, looked up): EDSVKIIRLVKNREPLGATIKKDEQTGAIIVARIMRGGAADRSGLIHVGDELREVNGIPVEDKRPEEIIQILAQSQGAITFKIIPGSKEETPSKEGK
# T11: SNTB1, Q13884
# T11 sequence (Q13884 107-205, limits assumed, looked up): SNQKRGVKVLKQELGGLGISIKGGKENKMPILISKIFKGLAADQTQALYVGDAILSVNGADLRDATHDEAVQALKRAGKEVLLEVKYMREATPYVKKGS
# B1: FCHSD2, O94868 (peptide)
# chain: KIEDVEITLV
# B2: NPSR1, Q6W5P4 (peptide)
# chain: MQILSKPEFI
# B3: FAM71C, Q8NEG0 (peptide)
# chain: STYCDYTIEI
# Molecular target: T1, RHPN1, Q8TCX5
# Assay: holdup assay
# Design: key: below the threshold = too weak to quantify, mostly under pKd 3.1 to 4
# Settings: plain residues with an end cap or a label only (N-terminal biotin on a linker: ado-ado)
row,Binder,pKd
1,B1,4.76
2,B2,below the threshold
3,B3,3.47

# Molecular target: SCRIB_1, Q14160
# Assay: holdup assay
# Design: key: below the threshold = too weak to quantify, mostly under pKd 3.1 to 4
# Settings: plain residues with an end cap or a label only (N-terminal biotin on a linker: ado-ado)
# SCRIB_1, Q14160, sequence (Q14160 718-814): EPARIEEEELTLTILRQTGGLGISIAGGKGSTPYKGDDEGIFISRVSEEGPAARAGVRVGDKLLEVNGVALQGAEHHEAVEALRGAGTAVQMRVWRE
row,Binder,pKd
1,B1,3.8
2,B2,below the threshold
3,B3,below the threshold

# Molecular target: T2, MPDZ_5, O75970
# Assay: holdup assay
# Design: key: below the threshold = too weak to quantify, mostly under pKd 3.1 to 4
# Settings: plain residues with an end cap or a label only (N-terminal biotin on a linker: ado-ado)
row,Binder,pKd
1,B1,below the threshold
2,B2,below the threshold
3,B3,below the threshold

# Molecular target: T3, LRRC7, Q96NW7
# Assay: holdup assay
# Design: key: below the threshold = too weak to quantify, mostly under pKd 3.1 to 4
# Settings: plain residues with an end cap or a label only (N-terminal biotin on a linker: ado-ado)
row,Binder,pKd
1,B1,below the threshold
2,B2,below the threshold
3,B3,below the threshold

# Molecular target: Inadl_1, Q8NI35
# Assay: holdup assay
# Design: key: below the threshold = too weak to quantify, mostly under pKd 3.1 to 4
# Settings: plain residues with an end cap or a label only (N-terminal biotin on a linker: ado-ado)
# Inadl_1, Q8NI35, sequence (Q8NI35 113-229): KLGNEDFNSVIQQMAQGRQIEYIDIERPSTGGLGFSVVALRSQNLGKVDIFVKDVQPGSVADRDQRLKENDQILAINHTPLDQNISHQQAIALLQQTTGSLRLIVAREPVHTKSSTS
row,Binder,pKd
1,B1,below the threshold
2,B2,below the threshold
3,B3,3.56

# Molecular target: T4, ARHGAP21, Q5T5U3
# Assay: holdup assay
# Design: key: below the threshold = too weak to quantify, mostly under pKd 3.1 to 4
# Settings: plain residues with an end cap or a label only (N-terminal biotin on a linker: ado-ado)
row,Binder,pKd
1,B1,4.01
2,B2,below the threshold
3,B3,4.13

# Molecular target: Inadl_3, Q8NI35
# Assay: holdup assay
# Design: key: below the threshold = too weak to quantify, mostly under pKd 3.1 to 4
# Settings: plain residues with an end cap or a label only (N-terminal biotin on a linker: ado-ado)
# Inadl_3, Q8NI35, sequence (Q8NI35 359-469): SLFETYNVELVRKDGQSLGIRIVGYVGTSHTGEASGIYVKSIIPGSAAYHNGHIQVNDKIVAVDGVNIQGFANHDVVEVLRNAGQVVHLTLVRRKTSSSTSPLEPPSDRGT
row,Binder,pKd
1,B1,4.43
2,B2,below the threshold
3,B3,5

# Molecular target: T5, MPDZ_10, O75970
# Assay: holdup assay
# Design: key: below the threshold = too weak to quantify, mostly under pKd 3.1 to 4
# Settings: plain residues with an end cap or a label only (N-terminal biotin on a linker: ado-ado)
row,Binder,pKd
1,B1,3.49
2,B2,below the threshold
3,B3,below the threshold

# Molecular target: GORASP1, Q9BQQ3
# Assay: holdup assay
# Design: key: below the threshold = too weak to quantify, mostly under pKd 3.1 to 4
# Settings: plain residues with an end cap or a label only (N-terminal biotin on a linker: ado-ado)
# GORASP1, Q9BQQ3, sequence (Q9BQQ3 1-208): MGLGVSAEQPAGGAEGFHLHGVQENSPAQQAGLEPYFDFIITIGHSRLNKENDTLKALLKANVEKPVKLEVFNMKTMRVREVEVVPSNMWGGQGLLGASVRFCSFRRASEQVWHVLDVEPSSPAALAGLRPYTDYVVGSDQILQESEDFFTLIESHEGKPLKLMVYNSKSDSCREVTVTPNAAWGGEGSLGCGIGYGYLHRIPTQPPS
row,Binder,pKd
1,B1,3.91
2,B2,4.15
3,B3,4.72

# Molecular target: FRMPD2_2, Q68DX3
# Assay: holdup assay
# Design: key: below the threshold = too weak to quantify, mostly under pKd 3.1 to 4
# Settings: plain residues with an end cap or a label only (N-terminal biotin on a linker: ado-ado)
# FRMPD2_2, Q68DX3, sequence (Q68DX3 944-1038): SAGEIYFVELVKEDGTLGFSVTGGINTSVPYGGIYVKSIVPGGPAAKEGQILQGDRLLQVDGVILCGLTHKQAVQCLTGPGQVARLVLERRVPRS
row,Binder,pKd
1,B1,4.76
2,B2,below the threshold
3,B3,below the threshold

# Molecular target: Inadl_4, Q8NI35
# Assay: holdup assay
# Design: key: below the threshold = too weak to quantify, mostly under pKd 3.1 to 4
# Settings: plain residues with an end cap or a label only (N-terminal biotin on a linker: ado-ado)
# Inadl_4, Q8NI35, sequence (Q8NI35 547-651): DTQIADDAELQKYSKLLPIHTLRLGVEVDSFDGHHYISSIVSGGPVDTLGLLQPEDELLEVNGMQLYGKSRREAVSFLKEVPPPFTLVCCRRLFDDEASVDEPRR
row,Binder,pKd
1,B1,below the threshold
2,B2,below the threshold
3,B3,below the threshold

# Molecular target: T6, HTRA3, P83110
# Assay: holdup assay
# Design: key: below the threshold = too weak to quantify, mostly under pKd 3.1 to 4
# Settings: plain residues with an end cap or a label only (N-terminal biotin on a linker: ado-ado)
row,Binder,pKd
1,B1,3.71
2,B2,4.61
3,B3,4.08

# Molecular target: T7, DFNB31_2, Q9P202
# Assay: holdup assay
# Design: key: below the threshold = too weak to quantify, mostly under pKd 3.1 to 4
# Settings: plain residues with an end cap or a label only (N-terminal biotin on a linker: ado-ado)
row,Binder,pKd
1,B1,below the threshold
2,B2,below the threshold
3,B3,below the threshold

# Molecular target: GORASP2, Q9H8Y8
# Assay: holdup assay
# Design: key: below the threshold = too weak to quantify, mostly under pKd 3.1 to 4
# Settings: plain residues with an end cap or a label only (N-terminal biotin on a linker: ado-ado)
row,Binder,pKd
1,B1,4.01
2,B2,4.61
3,B3,4.41

# Molecular target: DLG4_1, P78352
# Assay: holdup assay
# Design: key: below the threshold = too weak to quantify, mostly under pKd 3.1 to 4
# Settings: plain residues with an end cap or a label only (N-terminal biotin on a linker: ado-ado)
# DLG4_1, P78352, sequence (P78352 62-152): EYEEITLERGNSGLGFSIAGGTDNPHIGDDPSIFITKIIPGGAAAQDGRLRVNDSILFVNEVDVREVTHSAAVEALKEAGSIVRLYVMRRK
row,Binder,pKd
1,B1,3.89
2,B2,below the threshold
3,B3,below the threshold

# Molecular target: TJP1_2, Q07157
# Assay: holdup assay
# Design: key: below the threshold = too weak to quantify, mostly under pKd 3.1 to 4
# Settings: plain residues with an end cap or a label only (N-terminal biotin on a linker: ado-ado)
# TJP1_2, Q07157, sequence (Q07157 181-274): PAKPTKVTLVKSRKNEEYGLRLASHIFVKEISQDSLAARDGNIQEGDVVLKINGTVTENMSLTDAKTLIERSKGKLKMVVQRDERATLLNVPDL
row,Binder,pKd
1,B1,below the threshold
2,B2,below the threshold
3,B3,3.65

# Molecular target: GRIP2_6, Q9C0E4
# Assay: holdup assay
# Design: key: below the threshold = too weak to quantify, mostly under pKd 3.1 to 4
# Settings: plain residues with an end cap or a label only (N-terminal biotin on a linker: ado-ado)
# GRIP2_6, Q9C0E4, sequence (Q9C0E4 648-740): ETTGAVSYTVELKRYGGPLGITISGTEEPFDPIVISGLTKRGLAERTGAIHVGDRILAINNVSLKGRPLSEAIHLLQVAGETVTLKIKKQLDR
row,Binder,pKd
1,B1,below the threshold
2,B2,below the threshold
3,B3,4.14

# Molecular target: SCRIB_3, Q14160
# Assay: holdup assay
# Design: key: below the threshold = too weak to quantify, mostly under pKd 3.1 to 4
# Settings: plain residues with an end cap or a label only (N-terminal biotin on a linker: ado-ado)
# SCRIB_3, Q14160, sequence (Q14160 999-1103): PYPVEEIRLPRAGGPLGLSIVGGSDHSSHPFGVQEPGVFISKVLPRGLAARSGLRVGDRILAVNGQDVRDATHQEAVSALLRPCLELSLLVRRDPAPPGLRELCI
row,Binder,pKd
1,B1,3.48
2,B2,3.59
3,B3,4.06

# Molecular target: IL16_1, Q14005
# Assay: holdup assay
# Design: key: below the threshold = too weak to quantify, mostly under pKd 3.1 to 4
# Settings: plain residues with an end cap or a label only (N-terminal biotin on a linker: ado-ado)
# IL16_1, Q14005, sequence (Q14005 210-306): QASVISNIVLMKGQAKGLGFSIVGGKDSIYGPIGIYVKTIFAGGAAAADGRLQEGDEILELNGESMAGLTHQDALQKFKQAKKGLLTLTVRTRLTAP
row,Binder,pKd
1,B1,3.48
2,B2,below the threshold
3,B3,below the threshold

# Molecular target: PDLIM1, O00151
# Assay: holdup assay
# Design: key: below the threshold = too weak to quantify, mostly under pKd 3.1 to 4
# Settings: plain residues with an end cap or a label only (N-terminal biotin on a linker: ado-ado)
# PDLIM1, O00151, sequence (O00151 1-87): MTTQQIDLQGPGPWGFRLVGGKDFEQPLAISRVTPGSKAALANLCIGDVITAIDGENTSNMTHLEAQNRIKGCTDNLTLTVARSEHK
row,Binder,pKd
1,B1,below the threshold
2,B2,below the threshold
3,B3,below the threshold

# Molecular target: T8, PDZRN3_1, Q9UPQ7
# Assay: holdup assay
# Design: key: below the threshold = too weak to quantify, mostly under pKd 3.1 to 4
# Settings: plain residues with an end cap or a label only (N-terminal biotin on a linker: ado-ado)
row,Binder,pKd
1,B1,below the threshold
2,B2,below the threshold
3,B3,below the threshold

# Molecular target: DLG2_3, Q15700
# Assay: holdup assay
# Design: key: below the threshold = too weak to quantify, mostly under pKd 3.1 to 4
# Settings: plain residues with an end cap or a label only (N-terminal biotin on a linker: ado-ado)
row,Binder,pKd
1,B1,below the threshold
2,B2,3.53
3,B3,below the threshold

# Molecular target: T9, FRMPD1, Q5SYB0
# Assay: holdup assay
# Design: key: below the threshold = too weak to quantify, mostly under pKd 3.1 to 4
# Settings: plain residues with an end cap or a label only (N-terminal biotin on a linker: ado-ado)
row,Binder,pKd
1,B1,below the threshold
2,B2,below the threshold
3,B3,below the threshold

# Molecular target: NHERF4_1, Q86UT5-2
# Assay: holdup assay
# Design: key: below the threshold = too weak to quantify, mostly under pKd 3.1 to 4
# Settings: plain residues with an end cap or a label only (N-terminal biotin on a linker: ado-ado)
# NHERF4_1, Q86UT5-2, sequence (Q86UT5 other isoform, or with tags, fused parts or gaps): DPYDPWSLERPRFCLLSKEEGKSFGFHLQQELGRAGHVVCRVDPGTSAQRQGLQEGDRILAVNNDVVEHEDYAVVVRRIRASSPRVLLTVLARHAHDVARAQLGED
row,Binder,pKd
1,B1,3.73
2,B2,3.62
3,B3,below the threshold

# Molecular target: T10, MPP7, Q5T2T1
# Assay: holdup assay
# Design: key: below the threshold = too weak to quantify, mostly under pKd 3.1 to 4
# Settings: plain residues with an end cap or a label only (N-terminal biotin on a linker: ado-ado)
row,Binder,pKd
1,B1,below the threshold
2,B2,below the threshold
3,B3,4.6

# Molecular target: NHERF4_4, Q86UT5
# Assay: holdup assay
# Design: key: below the threshold = too weak to quantify, mostly under pKd 3.1 to 4
# Settings: plain residues with an end cap or a label only (N-terminal biotin on a linker: ado-ado)
# NHERF4_4, Q86UT5, sequence (Q86UT5 464-550): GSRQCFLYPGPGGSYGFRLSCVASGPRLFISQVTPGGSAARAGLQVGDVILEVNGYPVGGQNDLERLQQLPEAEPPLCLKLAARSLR
row,Binder,pKd
1,B1,below the threshold
2,B2,below the threshold
3,B3,4.68

# Molecular target: T11, SNTB1, Q13884
# Assay: holdup assay
# Design: key: below the threshold = too weak to quantify, mostly under pKd 3.1 to 4
# Settings: plain residues with an end cap or a label only (N-terminal biotin on a linker: ado-ado)
row,Binder,pKd
1,B1,3.95
2,B2,below the threshold
3,B3,below the threshold
